Substrate in series [1]: N[C@@H](Cc1ccc(O)c(O)c1)C(=O)O
Put plainly: Kinetic analysis of tyrosinase (Lineweaver-Burk plots). The series is classed as biochemical, Bacillus megaterium. The settings on record: other: compound as TyrBm natural substrate; pH 7.4; 40.0 °C.

Substrate in series [2]: N[C@@H](Cc1ccc(O)cc1)C(=O)O
The series is described as above. The series is classed as biochemical, Bacillus megaterium. The conditions noted are these: other: compound as TyrBm natural substrate; pH 7.4; 40.0 °C.

This is an account of results in publication PMC5057104, “The unravelling of the complex pattern of tyrosinase inhibition” (Scientific Reports, 2016).

B1: TyrBm (tyrosinase from Bacillus megaterium) (Priestia megaterium) (protein)
chain: MSNKYRVRKNVLHLTDTEKRDFVRTVLILKEKGIYDRYIAWHGAAGKFHTPPGSDRNAAHMSSAFLPWHREYLLRFERDLQSINPEVTLPYWEWETDAQMQDPSQSQIWSADFMGGNGNPIKDFIVDTGPFAAGRWTTIDEQGNPSGGLKRNFGATKEAPTLPTRDDVLNALKITQYDTPPWDMTSQNSFRNQLEGFINGPQLHNRVHRWVGGQMGVVPTAPNDPVFFLHHANVDRIWAVWQIIHRNQNYQPMKNGPFGQNFRDPMYPWNTTPEDVMNHRKLGYVYDIELRKSKRSS
notes: made in house; host or cells: Escherichia coli BL21
As for B1, in series [1], the Km was 240 ± 20 µM, the maximum rate (Vmax) was 30.3 µmol/min/mg, the kcat was 17.8 s⁻¹ and the kcat/Km came to 74200 M⁻¹ s⁻¹. Besides, in series [2], the Km was determined as 82 ± 6 µM, the Vmax was determined as 3.62 µmol/min/mg, the kcat worked out at 2.1 s⁻¹ and the kcat/Km is 25600 M⁻¹ s⁻¹.
